Among the data in publication PMC10395195 are Kd values, retold here.

In assay [1] the target is Tle1^Vc (Vibrio cholerae E1). As to the kind of experiment: ITC. For orientation: ITC needs no label: the signal is the heat of the interaction.
In assay [2] the target is Tle1^Vc (Vibrio cholerae E1). As to the kind of experiment: SPR. In general terms: In SPR one partner is held on a chip, and binding of the other changes the refractive index at the surface.

Broadly, the Kd is the free concentration of one partner at which half of the binding sites on the other are occupied at equilibrium, for simple one-to-one binding. Read a low Kd as higher affinity.

Take Tli1^tox- (natural protein): the equilibrium dissociation constant (Kd) in assay [1] stood at 0.00035 µM. Regarding VgrG1^E1 (natural protein), the Kd in assay [2] was 2.03 µM.
